Reference: patent publication US20230105457A1, “Immunogenic Compounds For Treatment Of Adrenal Cancer” (ENTEROME S.A., priority 2019, published 2023)
Read-outs that look alike come from different tables or passages of the source.

Experiments:
[1] = system: splenocytes of HLA-A2 (CB6F1-Tg(HLA-A*0201/H2-K^b)A*0201) mice; assay: ELISPOT-IFNγ assay on splenocytes of vaccinated HLA-A2 humanized mice (Example 9); format: in vivo, mouse; settings: 100 μg s.c. d0 and d14 with T13L helper and IFA; compared to the respective human reference epitopes
Source text: Briefly, HLA-A2 humanized mice (HLA-A2 (CB6F1-Tg(HLA-A*0201/H2-K^b)A*0201) were assigned randomly (based on mouse sex and age) to experimental groups, wherein each group was immunized with a specific vaccination peptide (vacc-pAg) combined to a common helper peptide (h-pAg T13L; sequence: […]; SEQ ID NO: 280; Bhasin M, Singh H, Raghava G P (2003) MHCBN: a comprehensive database of MHC binding and non-binding peptides. Bioinformatics 19: 665-666) (as outlined in Table 15 below). The vacc-pAg were compared in couples (group 1 vs. group 2, group 1 vs. group 3; group 1 vs. group 4; group 5 vs. group 6; group 7 vs. group 8). Thereby, both native and optimized versions of a single peptide were compared in each wave.
The animals were immunized on day 0 (d0) with a prime injection, and on d14 with a boost injection. Each mouse was injected s.c. at tail base with 100 μL of an oil-based emulsion that contained: • 100 μg of vacc-pAg (25 μL of 4 mg/mL stock per mouse); • 150 μg of h-pAg (15 μL of 10 mg/mL stock per mouse); • 10 μL of PBS to reach a total volume of 50 μL (per mouse); • Incomplete Freund's Adjuvant (IFA) added at 1:1 (v:v) ratio (50 μL per mouse).
A separate emulsion was prepared for each vacc-pAg, as follows: IFA reagent was added to the vacc-pAg/h-pAg/PBS mixture in a 15 mL tube and mixed on vortex for repeated cycles of 1 min until forming a thick emulsion.
Seven days after the boost injection (i.e. on d21), the animals were euthanized and the spleen was harvested. Splenocytes were prepared by mechanical disruption of the organ followed by 70 μm-filtering and Ficoll density gradient purification.
The splenocytes were immediately used in an ELISPOT-IFNγ assay (Table 16). Experimental conditions were repeated in triplicates, using 2*105 total splenocytes per well, and were cultured in presence of vacc-pAg (10 μM), lonomycin (0.1 μM) plus PMA (1 μM) or medium-only to assess for their capacity to secrete IFNγ. The commercial ELISPOT-IFNγ kit (Diaclone Kit Mujrine IFNγ ELISpot) was used following the manufacturer's instructions, and the assay was performed after about 19 h of incubation.
Spots were counted on a CTL ELISpot reader. Data plotting and statistical analysis were performed with the Prism-5 software (GraphPad Software Inc.).
The data were then normalized as a number of specific spots (the average counts obtained in the ‘medium only’ condition being subtracted) per 50*103 total T cells.
The individual average values (obtained from the triplicates) were next used to plot the group average values. As the functional capacity of T cells might vary from individual to individual, the data were also expressed as the percentage of the ionomycin plus PMA response per individual (see FIG. 11).

HLA-A*0201 = HLA-A*0201 (Homo sapiens, UniProt P04439, D140Y/D185E/D98H/E176V/E277Q/G131W/G231S/I119V/I121R/I166T/I218V/L300P/L318F/N151K/N90K/P208A/P217A/Q86G/Q94H/R138H/R169H/T345S)
Procedure: T2 cells (2·10^5 cells per well) are incubated with decreasing concentrations of peptides from 100 μM to 0.1 μM in a AIMV medium supplemented with 100 ng/μl of human P2m at 37° C. for 16 hours.
The analysis is achieved by FACS (Guava Easy Cyte).
The relative affinity is then determined as follows:
Each peptide is solubilized by taking into account the amino acid composition. […] Other peptides are resuspended in water or PBS pH7.4.
T2 cells (2·10^5 cells per well) were incubated with decreasing concentrations of peptides from 100 μM to 0.1 μM in a AIMV medium supplemented with 100 ng/μl of human P2m at 37° C. for 16 hours.
The analysis was achieved by FACS (Guava Easy Cyte).

[2] = HLA-A*0201, HIV peptide printed as 1
[3] = T2 cell line, HLA-A*0201, Example 13, protocol as in Example 3

Question: Which results are given for GLLGEFLQI [BIRC5-B3]?
Answer: T cell responses in the ELISPOT-IFNγ assay (in words) [1]: induced improved T cell responses; Concentration of peptide that induces 20% of HLA-A2 expression (HLA-A*0201; Table 14, Example 8): 22.9 µM

Question: What does the source list for “HIV: Reference peptide HIV pol 589-597, positive control (ISPIETVPV; UniProt P04585 589-597, looked up, fragment) [reference compound]”?
Answer: In vitro binding affinity (HLA-A*0201; [2]): 1; Concentration of peptide that induces 20% of HLA-A2 expression (HLA-A*0201; Table 17, Example 12): 0.85 µM; In vitro binding affinity (HLA-A*0201; Table 17, Example 12, relative affinity vs HIV): 1.00; Relative HLA-A2 labelling on T2 cells (HIV at 100 μM = 100) (HLA-A*0201; Table 18, peptide concentration 0.1 μM): 2.405; Relative HLA-A2 labelling on T2 cells (HIV at 100 μM = 100) (HLA-A*0201; Table 18, peptide concentration 1 μM): 22.14; Relative HLA-A2 labelling on T2 cells (HIV at 100 μM = 100) (HLA-A*0201; Table 18, peptide concentration 10 μM): 84.725; Relative HLA-A2 labelling on T2 cells (HIV at 100 μM = 100) (HLA-A*0201; Table 18, peptide concentration 100 μM): 100

Question: Which results are given for YTLGEFLYI [BIRC5-B2]?
Answer: T cell responses in the ELISPOT-IFNγ assay (in words) [1]: induced improved T cell responses; Concentration of peptide that induces 20% of HLA-A2 expression (HLA-A*0201; Table 14, Example 8): 14.7 µM

Question: How did the “Concentration of peptide that induces 20% of HLA-A2 expression” value (HLA-A*0201; [3]) turn out when YLPFGFILV [IL13RA2-B5] was run?
Answer: 1.5 µM

Question: For “RVSSYLVPI (listed as Homo sapiens) [FOXM1-H, reference compound]”, which “Concentration of peptide that induces 20% of HLA-A2 expression” value (HLA-A*0201; Table 14, Example 8) is on record?
Answer: 37.6 µM

Question: How did the “Concentration of peptide that induces 20% of HLA-A2 expression” value (HLA-A*0201; [3]) turn out when FMPFGFILPI [IL13RA2-B6] was run?
Answer: 5.9 µM

Question: For YLYTFLIST [IL13RA2-B2], which “In vitro binding affinity” value (HLA-A*0201; [2]) is on record?
Answer: 5.97

Question: And the “Concentration of peptide that induces 20% of HLA-A2 expression” value (HLA-A*0201; [3])?
Answer: 4.5 µM

Question: Which “Concentration of peptide that induces 20% of HLA-A2 expression” value (HLA-A*0201; [3]) does the source give for YMPFGFILV [IL13RA2-B4] here?
Answer: 4.5 µM

Question: Which “Concentration of peptide that induces 20% of HLA-A2 expression” value (HLA-A*0201; [3]) does the source give for FMPFGFILGV [IL13RA2-B3] here?
Answer: 3.3 µM

Question: LMLGEFLKL [2M, reference compound] was tested. Which “Concentration of peptide that induces 20% of HLA-A2 expression” value (HLA-A*0201; Table 17, Example 12) did it give?
Answer: 2.87 µM

Question: What does the source list for ALPFGFILV [1A9V, reference compound]?
Answer: Concentration of peptide that induces 20% of HLA-A2 expression (HLA-A*0201; [3]): 20.9 µM; Concentration of peptide that induces 20% of HLA-A2 expression (HLA-A*0201; Table 12, Example 7): 36.5 µM

Question: For RLSSYLVEI [FOXM1-B], which “Concentration of peptide that induces 20% of HLA-A2 expression” value (HLA-A*0201; Table 14, Example 8) is on record?
Answer: 46.7 µM
